Earlier results on two substances are cited in paper PMC12892997.

In general, Kd refers to a measure of binding affinity in units of concentration.

The target in data set [1] is SARS-CoV-2 spike protein RBD (Severe acute respiratory syndrome coronavirus 2) (UniProt P0DTC2).
Data set [2] addresses SARS-CoV-2 spike protein (Severe acute respiratory syndrome coronavirus 2) (UniProt P0DTC2).

Sequence of GRP78 (P11021 19-654): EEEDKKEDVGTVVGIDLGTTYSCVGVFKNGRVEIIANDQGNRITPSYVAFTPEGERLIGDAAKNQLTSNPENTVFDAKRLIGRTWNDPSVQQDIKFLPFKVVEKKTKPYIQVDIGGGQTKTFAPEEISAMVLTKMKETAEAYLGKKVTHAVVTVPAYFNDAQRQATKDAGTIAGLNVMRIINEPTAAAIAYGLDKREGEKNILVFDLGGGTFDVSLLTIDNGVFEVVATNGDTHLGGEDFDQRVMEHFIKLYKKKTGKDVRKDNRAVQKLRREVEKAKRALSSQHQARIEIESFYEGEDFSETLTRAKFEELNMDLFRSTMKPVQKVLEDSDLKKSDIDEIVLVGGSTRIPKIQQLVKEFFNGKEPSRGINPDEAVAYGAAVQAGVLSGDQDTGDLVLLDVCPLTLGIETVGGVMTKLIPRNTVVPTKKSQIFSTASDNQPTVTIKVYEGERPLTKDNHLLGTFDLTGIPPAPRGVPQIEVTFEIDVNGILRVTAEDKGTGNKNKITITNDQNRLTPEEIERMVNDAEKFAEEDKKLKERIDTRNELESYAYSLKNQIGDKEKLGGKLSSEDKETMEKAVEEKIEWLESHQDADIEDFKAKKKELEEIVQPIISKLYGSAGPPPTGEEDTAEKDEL

Regarding “CD4 N-terminal domain (from UniProt P01730)”, in data set [1], the Kd was 24.5 nM.
For GRP78 (from UniProt P11021), the Kd in data set [2] is 55.2 nM.
